Consider three molecules from patent US20160222114A1 (published 2016).

Assay [1] deals with human BTLA, endogenous protein of peripheral blood B and T cells of healthy donors (human, UniProt Q7Z6A9 31-289). In words: cell-based or functional assay.
In assay [2] the target is T1, human BTLA (analyte of the BIAcore measurements) (human, UniProt Q7Z6A9 31-156, limits assumed).
T1 sequence: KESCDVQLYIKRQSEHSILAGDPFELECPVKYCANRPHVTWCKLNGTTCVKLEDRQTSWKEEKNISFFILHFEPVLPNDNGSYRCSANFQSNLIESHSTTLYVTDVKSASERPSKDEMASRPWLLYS
Kind of assay: BIAcore.

In assay [3] the target is T1, human BTLA (analyte of the BIAcore …). In words: BIAcore surface plasmon resonance.
For assay [4] the target is unchanged. Kind of assay: BIAcore, antibody captured on an anti-CH1 chip. The source says: For BIAcore, the test antibodies were captured on an anti-CH1 chip.
Assay [5] addresses T2, cynomolgus BTLA expressed on CHO cells (cynomolgus, UniProt A0A2K5W7M7 31-289).
T2 construct: whole, on cells; also called cyno BTLA; CHO cells expressing cynomolgus BTLA
T2 sequence: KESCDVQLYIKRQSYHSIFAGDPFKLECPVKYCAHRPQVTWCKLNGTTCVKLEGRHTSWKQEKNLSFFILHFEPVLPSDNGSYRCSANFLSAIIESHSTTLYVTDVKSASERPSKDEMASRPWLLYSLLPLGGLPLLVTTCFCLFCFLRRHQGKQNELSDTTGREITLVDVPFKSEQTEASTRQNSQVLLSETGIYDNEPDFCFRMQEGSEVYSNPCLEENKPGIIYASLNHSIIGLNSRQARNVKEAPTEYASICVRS
In words: flow cytometry on CHO cells expressing cynomolgus BTLA, PE-anti-huFc detection.

B1: hu Mab8D5 Fab' fragment (Fab, V domains shown)
VH: EVQLVESGGGLVQPGGSLRLSCAASGFTISSYDMHWVRQATGKGLEWVSVIGPAGDTYYPGSVKGRFTISRENAKNSLYLQMNSLRAGDTAVYYCAREGMAAHNYYGMDVWGQGTTVTVSS
VL: not shown
As to B1, the “relative potency of the Fab′ against the full Mab” value in assay [1] is ~10 fold less.

B2: hu Mab8D5 (IgG4 version of 8D5, fully human monoclonal agonist anti-BTLA antibody) (antibody, V domains shown)
VH: EVQLVESGGGLVQPGGSLRLSCAASGFTISSYDMHWVRQATGKGLEWVSVIGPAGDTYYPGSVKGRFTISRENAKNSLYLQMNSLRAGDTAVYYCAREGMAAHNYYGMDVWGQGTTVTVSS
VL: not shown
notes: Rest: human IgG4/kappa; Re-expressed in CHO-S cells; also called hu Mab8D5 G4; 8D5 (G4) agonist
In assay [2], B2 gave an off-rate constant (koff) of 0.000137 s⁻¹ and a kon of 45800 M⁻¹ s⁻¹. Besides, the dissociation constant Kd in assay [3] was ~2 nM. For the same molecule, in assay [4], the koff is 0.00019 s⁻¹ and the on-rate constant (kon) was 79000 M⁻¹ s⁻¹. The EC50 in assay [5] was ~12 nM.

B3: hu Mab8D5 G1 (IgG1 version of 8D5) (antibody, V domains shown)
VH: EVQLVESGGGLVQPGGSLRLSCAASGFTISSYDMHWVRQATGKGLEWVSVIGPAGDTYYPGSVKGRFTISRENAKNSLYLQMNSLRAGDTAVYYCAREGMAAHNYYGMDVWGQGTTVTVSS
VL: not shown
notes: same variable regions as hu Mab8D5; also called IgG1 version of hu Mab8D5; 8D5 IgG1 Mab
For the molecule B3, in assay [5], the EC50 is ~12 nM.
